Broadly, the Kd is the concentration at which binding is half-saturated. High values mean lower affinity, low ones higher affinity.

Read-outs that look alike come from different tables or passages of the source.

Data set [1] concerns the target T1, Pdr1p DBD (Saccharomyces cerevisiae, UniProt P12383 1-207).
T1 sequence: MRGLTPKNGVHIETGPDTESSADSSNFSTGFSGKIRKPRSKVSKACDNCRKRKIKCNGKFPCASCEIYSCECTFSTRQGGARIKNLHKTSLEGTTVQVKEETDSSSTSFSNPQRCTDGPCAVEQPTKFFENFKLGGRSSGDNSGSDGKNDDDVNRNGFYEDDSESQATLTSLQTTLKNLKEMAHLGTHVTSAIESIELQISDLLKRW
The data set is described as follows: competition fluorescence polarization. In general terms: In fluorescence polarisation assays a small probe gives low polarisation when free and higher when bound to something large.

The target in data set [2] is T2, Pdr3p DBD (Saccharomyces cerevisiae, UniProt P33200 1-184).
T2 sequence: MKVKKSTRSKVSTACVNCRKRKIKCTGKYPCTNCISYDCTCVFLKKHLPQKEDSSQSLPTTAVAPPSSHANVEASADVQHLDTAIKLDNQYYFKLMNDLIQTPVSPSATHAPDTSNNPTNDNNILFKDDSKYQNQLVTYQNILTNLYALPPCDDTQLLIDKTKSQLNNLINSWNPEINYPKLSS
The data set is described as follows: competition fluorescence polarization.

Data set [3] concerns the target T1, Pdr1p DBD. The data set is described as follows: fluorescence polarization.
Data set [4] concerns the target T2, Pdr3p DBD. Nature of the data set: fluorescence polarization.
The target in data set [5] is T1, Pdr1p DBD. Nature of the data set: competition fluorescence polarization. This is another data set of the same source.
The target of data set [6] is T1, Pdr1p DBD. Nature of the data set: competition fluorescence polarization. This is another data set of the same source.
Data set [7] deals with T2, Pdr3p DBD. The data set is described as follows: competition fluorescence polarization. The source holds these as a separate data set.
Data set [8] has as its target T1, Pdr1p DBD. Nature of the data set: competition fluorescence polarization. The source holds these as a separate data set.
Data set [9] addresses T2, Pdr3p DBD. The data set is described as follows: competition fluorescence polarization. This is another data set of the same source.

B1: PDR5_4 C4A G4T G14A (paper numbering) (dsDNA)
DNA 1: AAAATTCCGTGGAAAACC
DNA 2: GGTTTTCCACGGAATTTT
As for B1, the binding result with Pdr1p DBD [1] and with Pdr3p DBD [2] was “binds” in each case.

B2: PBM half site 18mer (dsDNA)
DNA 1: AAAAGTTCCGGAACAACC
DNA 2: GGTTGTTCCGGAACTTTT
Regarding B2, the Kd with Pdr1p DBD [3] came to 229 nM; with Pdr3p DBD [4] it was 118 nM.

B3: PDR5_4 G4T G14A (paper numbering) (dsDNA)
DNA 1: AAACTTCCGTGGAAAACC
DNA 2: GGTTTTCCACGGAAGTTT
On to B3, for which the binding result in the data set with Pdr1p DBD [5] is “binds”.

B4: PBM half site TTCCGAAA (dsDNA)
DNA 1: AAAAGTTCCGAAACAACC
DNA 2: GGTTGTTTCGGAACTTTT
In the case of B4, the binding result with Pdr1p DBD [6] and in the data set with Pdr3p DBD [7] was “binds” each time.

B5: PBM half site TTCAAGAA (dsDNA)
DNA 1: AAAAGTTCAAGAACAACC
DNA 2: GGTTGTTCTTGAACTTTT
For the molecule B5, the binding signal with Pdr1p DBD [8] is 30 fold lower affinity than PBM half site; in the data set with Pdr3p DBD [9] it was 2.5 fold lower affinity than PBM half site.

(Values after paper doi:10.1101/2023.08.11.553033.)
